From patent CN104744590A

Columns and labels:
[1] = biological target: 重组血凝素蛋白 H1N1(A/New Caledonia/20/1999) (Influenza A virus H1N1 (A/New Caledonia/20/1999))
[2] = biological target: 重组血凝素蛋白 H6N1(A/Califomia/HKWF115/2007) (Influenza A virus H6N1 (California/HKWF115/2007 as printed))
[3] = biological target: 重组血凝素蛋白 H1N2(A/swine/Guangxi/13/2006) (Influenza A virus H1N2 (A/swine/Guangxi/13/2006))
[4] = biological target: 重组血凝素蛋白 H1N1(A/Ohio/UR06-0091/2007) (Influenza A virus H1N1 (A/Ohio/UR06-0091/2007))
[5] = biological target: 重组血凝素蛋白 H2N2(A/Canada/720/2005) (Influenza A virus H2N2 (A/Canada/720/2005))
[6] = biological target: 重组血凝素蛋白 H1N3(A/duck/NZL/160/1976) (Influenza A virus H1N3 (A/duck/NZL/160/1976))
[7] = biological target: 重组血凝素蛋白 H1N1(A/Puerto Rico/8/1934) (Influenza A virus H1N1 (A/Puerto Rico/8/1934)) (UniProt P03452)
[8] = biological target: 重组血凝素蛋白 H1N1(A/California/7/2009) (Influenza A virus H1N1 (A/California/7/2009))
[9] = biological target: 重组血凝素蛋白 H1N1(A/California/4/2009) (Influenza A virus H1N1 (A/California/4/2009))

B1: 抗甲型H1N1猪流感病毒血凝素蛋白鼠单克隆抗体 (antibody, V domains shown)
VH: EIQLQQTGPELVKPGAPVKISCKASGYSLTDYIILWVKQSHGKSLEWIGNINPYFGTTSYNLKFKDKATLTVDKSSSTAYMELNSLTSEDSAVYYCARNDNYAMDYWGQGTSVTVSS
VL: QIVLTQSPAIMSASLGERVTMTCTASSSVSSTYLHWYQQKPGSSPKLWIYSTSNLASGVPARFSGSGSGTSYSLTISSMEAEDAATYYCHQYHRSPYTFGGGTKLEIKR
OD450nm值 [1]: 0.001 OD450nm
OD450nm值 [2]: 0.003 OD450nm
OD450nm值 [3]: 0.004 OD450nm
OD450nm值 [4]: 0.015 OD450nm
OD450nm值 [5]: 0.002 OD450nm
OD450nm值 [6]: 0.001 OD450nm
OD450nm值 [7]: 0.005 OD450nm
OD450nm值 [8]: 1.88 OD450nm
OD450nm值 [9]: 2.01 OD450nm
